Our source for the stoichiometry N values is article PMC9530591.

This experiment addresses HA1-trimer (influenza A virus H1N1 A/California/07/2009). Put plainly: AUC.

By stoichiometry N is commonly meant a count of units in the complex or per binding partner. HA1-trimer yielded a stoichiometry N of 3.
